Results on two molecules are retold here after PMC3617563 (Biochemistry, 2012).

Read-outs that look alike come from different tables or passages of the source.

Test [1] concerns the target T1, native ubiquitin (monoubiquitin) (UniProt P0CG48 1-76). The experiment in a line: stopped-flow fluorescence.
The target in test [2] is T2, Ub-AMC (ubiquitin-7-amino-4-methylcoumarin) (human, UniProt P0CG48 1-75, 7-amino-4-methylcoumarin (AMC) on the C-terminal glycine). Briefly: stopped-flow fluorescence.
Test [3] addresses T2, Ub-AMC …. The experiment in a line: other fluorescence titration.
For test [4], the target named is T2, Ub-AMC …. Briefly: stopped-flow fluorescence. This is another data set of the same source.
For test [5], the target named is T1, native ubiquitin (monoubiquitin). The experiment in a line: stopped-flow fluorescence. The source holds these as a separate data set.

B1: wild-type USP2 catalytic core (human ubiquitin-specific protease 2, amino acids 259 to 605) (domain or fragment, UniProt O75604 259-605, looked up)
chain: NSKSAQGLAGLRNLGNTCFMNSILQCLSNTRELRDYCLQRLYMRDLHHGSNAHTALVEEFAKLIQTIWTSSPNDVVSPSEFKTQIQRYAPRFVGYNQQDAQEFLRFLLDGLHNEVNRVTLRPKSNPENLDHLPDDEKGRQMWRKYLEREDSRIGDLFVGQLKSSLTCTDCGYCSTVFDPFWDLSLPIAKRGYPEVTLMDCMRLFTKEDVLDGDEKPTCCRCRGRKRCIKKFSIQRFPKILVLHLKRFSESRIRTSKLTTFVNFPLRDLDLREFASENTNHAVYNLYAVSNHSGTTMGGHYTAYCRSPGTGEWHTFNDSSVTPMSSSQVRTSDAYLLFYELASPPSRM
With B1, in test [1], the off-rate constant (koff) (usually the first-order rate constant of dissociation) is 2.64 ± 0.56 s⁻¹ and the kon (usually the second-order rate constant of association) worked out at 400000 ± 10000 M⁻¹ s⁻¹.

B2: C276A USP2 catalytic core (inactive active-site mutant) (domain or fragment, human, UniProt O75604 259-605, looked up)
chain: NSKSAQGLAGLRNLGNTAFMNSILQCLSNTRELRDYCLQRLYMRDLHHGSNAHTALVEEFAKLIQTIWTSSPNDVVSPSEFKTQIQRYAPRFVGYNQQDAQEFLRFLLDGLHNEVNRVTLRPKSNPENLDHLPDDEKGRQMWRKYLEREDSRIGDLFVGQLKSSLTCTDCGYCSTVFDPFWDLSLPIAKRGYPEVTLMDCMRLFTKEDVLDGDEKPTCCRCRGRKRCIKKFSIQRFPKILVLHLKRFSESRIRTSKLTTFVNFPLRDLDLREFASENTNHAVYNLYAVSNHSGTTMGGHYTAYCRSPGTGEWHTFNDSSVTPMSSSQVRTSDAYLLFYELASPPSRM
For B2, the Kd (in general, the constant that tells how readily two partners part at equilibrium) in test [2] was 5.5 µM; in test [3] it was 2.9 ± 0.6 µM. The values for the koff in test [4] and in test [5] were 1.82 ± 0.17 s⁻¹ and 7.54 ± 2.6 s⁻¹, respectively. Also, the association rate constant (kon) in test [4] is 330000 ± 20000 M⁻¹ s⁻¹; in test [5], 480000 ± 50000 M⁻¹ s⁻¹.
